± gives the uncertainty stated by the source.
Test: self-splicing fitness, log relative to wild type (ln ratio); higher = more splicing; Tetrahymena group I intron in knt gene, E. coli kanamycin selection, DiMSum; sequences stand for … in CUCUCU…GGAGGGAAAAGUUAUCAGGCAUGCACCUGGUAGCUAGUCUUUAAACCAAUAGAUUGCAUCGGUUUAAAAGGCAAGACCGUCAAAUUGCGGGAAAGGGGUCAACAGCCGUUCAGUACCAAGUCUCAGGGGAAACUUUGAGAUGGCCUUGCAAAGGGUAUGGUAAUAAGCUGACGGACAUGGUCCUAACCACGCAGCCAAGUCCUAAGUCAACAGAUCUUCUGUUGAUAUGGAUGCAGUUCACAGACUAAAUGUCGGUCGGGGAAGAUGUAUUCUUCUCAUAAGAUAUAGUCGGACCUCUCCUUAAUGGGAGCUAGCGGAUGAAGUGAUGCAACACUGGAGCCGCUGGGAACUAAUUUGUAUGCGAAAGUAUAUUGAUUAGUUUUGGAGUACUCGUGGUCG
Method in brief: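 DiMSum derived fitness as the error-weighted combination of fold changes across replicates, kanamycin versus no kanamycin, normalised to wild type. E. coli BL21(DE3) held the library, which randomised all eight P1ex-region intron nucleotides within the knt kanamycin-resistance gene on pET-22b(+). Six replicate transformations grew overnight at 37°C or 30°C on LB agar with or without 25 μg/mL kanamycin, also containing 100 μg/mL carbenicillin, 50 μM IPTG and 0.2% rhamnose, and pooled colonies were amplicon-sequenced on an Illumina HiSeq 2500.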

| Sequence | self-splicing fitness (ln) (30 °C) | self-splicing fitness (ln) (37 °C) |
| --- | --- | --- |
| UGAAAGCAAUAUUACGAAUA | -0.955 ± 0.098 | -0.396 ± 0.12 |
| UGAAAGCAAUAUUACGACCA | -0.558 ± 0.11 | 0.362 ± 0.14 |
| UGAAAGCAAUAUUACGACGU | -1.06 ± 0.065 | -0.131 ± 0.084 |
| UGAAAGCAAUAUUACGAUGC | – | -2.83 ± 0.41 |
| UGAAAGCAAUAUUACGCAAA | -2.12 ± 0.11 | -0.812 ± 0.11 |
| UGAAAGCAAUAUUACGCAGC | – | -1.62 ± 0.22 |
| UGAAAGCAAUAUUACGCAUA | -1.31 ± 0.098 | -0.274 ± 0.11 |
| UGAAAGCAAUAUUACGCCCC | -1.35 ± 0.43 | 0.00457 ± 0.49 |
| UGAAAGCAAUAUUACGCUAC | -3.01 ± 0.28 | -1.75 ± 0.33 |
| UGAAAGCAAUAUUACGCUAU | -3.32 ± 0.23 | -1.54 ± 0.17 |
| UGAAAGCAAUAUUACGCUCA | -1 ± 0.19 | -0.0203 ± 0.25 |
| UGAAAGCAAUAUUACGCUGU | -3.67 ± 0.19 | -1.73 ± 0.17 |
| UGAAAGCAAUAUUACGCUUG | -1.8 ± 0.11 | -1.32 ± 0.13 |
| UGAAAGCAAUAUUACGGACC | -0.608 ± 0.13 | -0.126 ± 0.16 |
| UGAAAGCAAUAUUACGGAUG | -1.05 ± 0.09 | -0.581 ± 0.11 |
| UGAAAGCAAUAUUACGGCCC | -0.866 ± 0.26 | 0.448 ± 0.4 |
| UGAAAGCAAUAUUACGGGAC | -3.12 ± 0.24 | -2.31 ± 0.21 |
| UGAAAGCAAUAUUACGGUGA | -1.27 ± 0.11 | -1.04 ± 0.14 |
| UGAAAGCAAUAUUACGGUGU | -3.55 ± 0.18 | -2.02 ± 0.22 |
| UGAAAGCAAUAUUACGUCGC | -3.49 ± 0.23 | -2.98 ± 0.32 |
| UGAAAGCAAUAUUACGUGAA | -1.3 ± 0.07 | -1.5 ± 0.085 |
| UGAAAGCAAUAUUACGUUGC | -3.54 ± 0.19 | -2.58 ± 0.21 |
| UGAAAGCAAUAUUACGUUGU | -4.1 ± 0.22 | -2.04 ± 0.12 |
| UGACAGCAAUAUUACGACCG | 0.701 ± 0.16 | 0.698 ± 0.19 |
| UGACAGCAAUAUUACGAGGU | -3.28 ± 0.15 | -2.65 ± 0.21 |

| Sequence | self-splicing fitness (ln) (30 °C) | self-splicing fitness (ln) (37 °C) |
| --- | --- | --- |
| UGACAGCAAUAUUACGAUCU | -0.412 ± 0.07 | 0.277 ± 0.082 |
| UGACAGCAAUAUUACGCAGA | -1.96 ± 0.15 | -1.11 ± 0.13 |
| UGACAGCAAUAUUACGCAUA | -0.976 ± 0.07 | 0.0999 ± 0.082 |
| UGACAGCAAUAUUACGCCAA | -1.51 ± 0.14 | -0.461 ± 0.12 |
| UGACAGCAAUAUUACGCGGG | -2.59 ± 0.17 | -1.24 ± 0.14 |
| UGACAGCAAUAUUACGCGUC | -4.67 ± 0.38 | -3.62 ± 0.27 |
| UGACAGCAAUAUUACGGAGU | -4.14 ± 0.2 | -2.79 ± 0.13 |
| UGACAGCAAUAUUACGGGAC | -4.05 ± 0.31 | -2.31 ± 0.22 |
| UGACAGCAAUAUUACGUCUC | -4.29 ± 0.34 | -1.47 ± 0.22 |
| UGACAGCAAUAUUACGUGCA | -1.06 ± 0.079 | 0.394 ± 0.11 |
| UGACAGCAAUAUUACGUGCU | -4.32 ± 0.24 | -1.04 ± 0.11 |
| UGACAGCAAUAUUACGUUCA | -0.939 ± 0.076 | 0.0202 ± 0.08 |
| UGACAGCAAUAUUACGUUGG | -2.08 ± 0.12 | -1.82 ± 0.13 |
| UGAGAGCAAUAUUACGAAGU | -3.04 ± 0.26 | -2.55 ± 0.31 |
| UGAGAGCAAUAUUACGACAG | -4.41 ± 0.39 | -3.07 ± 0.34 |
| UGAGAGCAAUAUUACGAGCA | – | 0.211 ± 0.27 |
| UGAGAGCAAUAUUACGAUAU | – | -2.8 ± 0.44 |
| UGAGAGCAAUAUUACGAUCG | -2.1 ± 0.13 | -2.12 ± 0.17 |
| UGAGAGCAAUAUUACGCAUU | -3.34 ± 0.38 | – |
| UGAGAGCAAUAUUACGCCAA | – | -1.98 ± 0.37 |
| UGAGAGCAAUAUUACGCCGG | -3.37 ± 0.47 | – |
| UGAGAGCAAUAUUACGCCUA | -1.58 ± 0.22 | -0.073 ± 0.21 |
| UGAGAGCAAUAUUACGCCUG | -2.46 ± 0.21 | -1.91 ± 0.32 |
| UGAGAGCAAUAUUACGCGCG | -2.15 ± 0.2 | -1.23 ± 0.24 |
| UGAGAGCAAUAUUACGCGGC | -3.04 ± 0.46 | -1.58 ± 0.44 |

| Sequence | self-splicing fitness (ln) (30 °C) | self-splicing fitness (ln) (37 °C) |
| --- | --- | --- |
| UGAGAGCAAUAUUACGCUAG | -3.66 ± 0.47 | – |
| UGAGAGCAAUAUUACGCUAU | -3.09 ± 0.35 | -1.48 ± 0.46 |
| UGAGAGCAAUAUUACGGCCG | -3.57 ± 0.43 | -1.38 ± 0.25 |
| UGAGAGCAAUAUUACGGCGG | -3.73 ± 0.35 | -1.9 ± 0.3 |
| UGAGAGCAAUAUUACGGUAA | -4.27 ± 0.25 | -2.27 ± 0.23 |
| UGAGAGCAAUAUUACGGUAC | – | -2 ± 0.38 |
| UGAGAGCAAUAUUACGGUAU | -3.07 ± 0.2 | -1.53 ± 0.3 |
| UGAGAGCAAUAUUACGUACA | -2.02 ± 0.21 | -0.955 ± 0.26 |
| UGAGAGCAAUAUUACGUCUA | -1.4 ± 0.11 | -0.679 ± 0.12 |
| UGAUAGCAAUAUUACGAAUG | -1.19 ± 0.12 | -1.14 ± 0.16 |
| UGAUAGCAAUAUUACGACCG | 0.139 ± 0.13 | 0.451 ± 0.17 |
| UGAUAGCAAUAUUACGACCU | -1.09 ± 0.17 | -0.0258 ± 0.18 |
| UGAUAGCAAUAUUACGAGAC | – | -2.59 ± 0.34 |
| UGAUAGCAAUAUUACGAGUA | -1.71 ± 0.16 | -1.23 ± 0.13 |
| UGAUAGCAAUAUUACGAUCG | -0.236 ± 0.14 | -0.942 ± 0.15 |
| UGAUAGCAAUAUUACGAUUA | -0.749 ± 0.11 | -0.000856 ± 0.1 |
| UGAUAGCAAUAUUACGCCCA | 0.955 ± 0.13 | -0.0259 ± 0.17 |
| UGAUAGCAAUAUUACGCGCG | -0.57 ± 0.086 | -0.283 ± 0.12 |
| UGAUAGCAAUAUUACGCGGU | -3.34 ± 0.27 | -1.99 ± 0.22 |
| UGAUAGCAAUAUUACGCUGA | -1.79 ± 0.2 | -0.53 ± 0.12 |
| UGAUAGCAAUAUUACGGCAU | -2.68 ± 0.13 | -1.41 ± 0.13 |
| UGAUAGCAAUAUUACGGCGG | -0.138 ± 0.095 | -0.142 ± 0.13 |
| UGAUAGCAAUAUUACGGUGC | -2.98 ± 0.35 | – |
| UGAUAGCAAUAUUACGUAGG | -1.66 ± 0.16 | -0.583 ± 0.16 |
| UGAUAGCAAUAUUACGUAUC | -2.67 ± 0.48 | – |

| Sequence | self-splicing fitness (ln) (30 °C) | self-splicing fitness (ln) (37 °C) |
| --- | --- | --- |
| UGAUAGCAAUAUUACGUCGA | -1.69 ± 0.11 | -0.847 ± 0.1 |
| UGAUAGCAAUAUUACGUCUG | -0.116 ± 0.085 | 0.318 ± 0.1 |
| UGAUAGCAAUAUUACGUGUG | -1.45 ± 0.1 | -0.804 ± 0.098 |
| UGAUAGCAAUAUUACGUUUC | -2.72 ± 0.22 | -2.29 ± 0.41 |
| UGCAAGCAAUAUUACGAAUG | -1.35 ± 0.085 | -0.724 ± 0.12 |
| UGCAAGCAAUAUUACGACUG | 0.127 ± 0.065 | 0.37 ± 0.087 |
| UGCAAGCAAUAUUACGAUGG | -1.25 ± 0.1 | -0.29 ± 0.12 |
| UGCAAGCAAUAUUACGCAAA | -2.5 ± 0.17 | -2 ± 0.15 |
| UGCAAGCAAUAUUACGCAUC | -1.87 ± 0.45 | -1.52 ± 0.45 |
| UGCAAGCAAUAUUACGCUAG | -2.55 ± 0.27 | -2.42 ± 0.33 |
| UGCAAGCAAUAUUACGCUCG | -3.78 ± 0.27 | -1.83 ± 0.2 |
| UGCAAGCAAUAUUACGGAAC | – | -0.851 ± 0.25 |
| UGCAAGCAAUAUUACGGGAG | -2.41 ± 0.096 | -1.71 ± 0.098 |
| UGCAAGCAAUAUUACGGUAU | -3.81 ± 0.21 | -1.15 ± 0.14 |
| UGCAAGCAAUAUUACGGUUA | 0.147 ± 0.075 | 0.11 ± 0.078 |
| UGCAAGCAAUAUUACGUAUA | -2.49 ± 0.18 | -0.379 ± 0.12 |
| UGCAAGCAAUAUUACGUCCG | 0.463 ± 0.1 | 0.55 ± 0.12 |
| UGCAAGCAAUAUUACGUGGA | -2.88 ± 0.17 | -1.36 ± 0.11 |
| UGCAAGCAAUAUUACGUGGU | -4.13 ± 0.17 | -2.84 ± 0.16 |
| UGCAAGCAAUAUUACGUUCA | 0.123 ± 0.06 | 0.454 ± 0.088 |
| UGCAAGCAAUAUUACGUUCU | -0.995 ± 0.069 | -0.423 ± 0.084 |
| UGCCAGCAAUAUUACGAAUA | -2.53 ± 0.16 | -0.828 ± 0.12 |
| UGCCAGCAAUAUUACGACAA | -1.19 ± 0.17 | 0.212 ± 0.13 |
| UGCCAGCAAUAUUACGACGU | -1.75 ± 0.14 | -1.26 ± 0.14 |

Source: the supplement of paper PMC7877785
